In assay [1] the target is Yu2 gp120 HIV-1 Env protein (HIV-1 (strain Yu2)) (UniProt P35961).

“And” between values parts separate entries of the source, which are not always exact repeats. Equal values may be shown once.

Consider CD4-Ig (Fc fusion), for which the IC50 (read off the curve) in assay [1] is 0.08 µg/mL and 0.1 µg/mL.
For VRC01 (antibody), in the assay with HIV-1 gp120 (HIV-1), the contribution of CDR H1 to gp120-binding surface area was determined as 44 Å2, the contribution of CDR H2/FR3 to gp120-binding surface area was 701 Å2, the contribution of CDR H3 to gp120-binding surface area stood at 122 Å2 and the total gp120-binding surface area (Total A 2) was determined as 867 Å2.

The record behind these values is patent US20150044137A1.
